Several values for one entry are separate records, joined by “and”; a condition that tells them apart may be missing. Equal values may be shown once.
Biological target: UBE2A (UniProt P49459 1-152)
Assay: ITC

B1: UBR4_(4730-5183) (domain or fragment)
chain: AIQHPGTQVLIGTDSIPNLHKLEQVSSDEGIGTLAENLLEALREHPDVNKKIDAARRETRAEKKRMAMAMRQKALGTLGMTTNEKGQVVTKTALLKQMEELIEEPGLTCCICREGYKFQPTKVLGIYTFTKRVALEEMENKPRKQQGYSTVSHFNIVHYDCHLAAVRLARGREEWESAALQNANTKCNGLLPVWGPHVPESAFATCLARHNTYLQECTGQREPTYQLNIHDIKLLFLRFAMEQSFSADTGGGGRESNIHLIPYIIHTVLYVLNTTRATSREEKNLQGFLEQPKEKWVESAFEVDGPYYFTVLALHILPPEQWRATRVEILRRLLVTSQARAVAPGGATRLTDKAVKDYSAYRSSLLFWALVDLIYNMFKKVPTSNTEGGWSCSLAEYIRHNDMPIYEAADKALKTFQEEFMPVETFSEFLDVAGLLSEITDPESFLKDLLNSVP
Kd: 2800 nM and 2580 nM

From publication doi:10.1101/2023.05.08.539884 (bioRxiv, 2023)
